Laboratory results reported in the RNAGym collection of RNA variant scans (doi:10.1073/pnas.2313332121).

B1: TPR t1 (parent)
chain: GACCAAUCUGCCCUCAGAGCUCGAGAACAUCUUCGGAUGCAGAGGAGGCAGGCUUCGGUGGCGCGAUAGCGCCAACGUCCUCAACCUCCAAUGCAUCCCACCACAUGAUGAUGCCUGAAGAGCCUUGGUUUUUUG

Variants of: B1
Test: polymerase ribozyme fitness, log enrichment relative to wild type (log ratio); higher = more active; in vitro selection for triplet polymerase activity
Procedure, shortened: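 In triplicate, a single round of in vitro selection was run on each mutant library, PCR-built and transcribed, covering one subunit of a heterodimeric triplet polymerase ribozyme. Frozen incubation at −7 °C followed annealing with a biotinylated primer, partner subunit and triplets, and extended constructs were then gel-excised, streptavidin-captured and taken through RT-PCR. Fitness is the logarithm of genotype enrichment over wild-type enrichment, from inverse-variance-weighted replicate averages of Illumina-sequenced inputs and outputs. […] only genotypes with ≥10 input reads and ≥1 read per output were kept.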
In the case of GACCAAUCUGCCCUCAGAGCUCGAGAACAUCUACGGAUGCAGAGGAGGCAGGCUUCGGUGGCACGAUAGCGCCAACGUCCUCAACCUCCAAUGCAUCCCACCACAUGAUGAUGCCUGAAGAGCCUUGGUUUUUUG, the “polymerase ribozyme fitness (log ratio)” value is reported as -6.46.
For GACCAAUCUGCCCUCAGAGUUCGAGAACAUCUUCGGAAGCAGAGGAGGCUGGCUUCGGUGGCGCGAUAGCACCAACGUCCUCAACCUCCAAUGCAUCCCACCACAUGAUGAUGCCUGAAGAGCCUUGGUUUUUUG, the “polymerase ribozyme fitness (log ratio)” value was -4.89.
In the case of GACCAAUUUGCCCUCAGAGCUCGAGAAGAUCUUCGGAUGCAGAGGAGGCAGGCUUCGGUGGCGCGAUAGCGCCAACGUCCUCAACCUCCAAUGCAUCCCACCACAUGAUGAUGCCUGAAGAGCCUUGGUUUUUUG, the “polymerase ribozyme fitness (log ratio)” value is reported as -1.19.
With GACCAAUCUGCCCUCAGAGCUCGAGAACAUCUUCGGAUGCAGAGGAGGCAGGCUACGGUGGCGCGAUAGCGCCAACAUCCUCAACCUCCAAUGCAUCCCACCACAUGAUGUUGUCUGAAGAGCCUUGGUUUUUUG the “polymerase ribozyme fitness (log ratio)” value was -5.73.
With GACCAAUCUGCCCUCAGAGCUCGAGAACAUCUUCGGAUGCAGAGGAGGCAGGCUUAGGUGGCGCGAUAGCACCAACGUCCUCAACAUCCAAUGCAUCCCACCAAAUGAUGAUGCCUGAAGAGCCUUGGUUUUUUG the “polymerase ribozyme fitness (log ratio)” value was -6.75.
In the case of GACCAAUGUGCCCUCAGAGCUCGAGAACAUCUUCGGAUGCAGAGGAGGCAGGCUUCGGUGGCGCGAUAGCGACAACGUCCUCAACCUCCAAUGCAUCCCACAACAUGAUGAUGCCUGAAGAGCCUUGGUUUUUUG, the “polymerase ribozyme fitness (log ratio)” value is reported as -1.22.
In the case of GACCAAUCUGCCCUCAGAGCUCGAGAACAUCGUCGGGUGCAGAGGAGGCAGGCUUCGGUGGCGCGAUAGCGCCAACGUCCUCAACCUCCAAUGCAUCCCACCACAUGAUGAUCCCUGAAGAGCCUUGGUUUUUUG, the “polymerase ribozyme fitness (log ratio)” value is reported as -5.08.
For GACCAAUCUGUCCUCAGAGCUCGAGAACAUCUUCGGAUGCAGAGGAGGCUGGCUUCGGUGCCGCGAUAGCGCCAAAGUCCUCAACCUCCAAUGCAUCCCACCACAUGAUGCUGCCUGAAGAGCCUUGGUUUUUUG, the “polymerase ribozyme fitness (log ratio)” value was -6.51.
For GACCAAUAUGCCCUCAGAGCUCGAGAACAUCUUCGGAUGCAGAGGAGGCUGGCUUCGGCGGCCCGAUAGCGCCAACGUCCUCAACCUCCAAUGCAUCCCACCACAUGAUGAUGCCUGAAGAGCCUUGGUUUUUUG, the “polymerase ribozyme fitness (log ratio)” value was -4.31.
With GACCAAUCUGCCCUCAGAGCUCGAGAACAUCUUCGGAUGCAGAGGAGGCAGGCUUCGGUGGCGCGAUAGCGCCAACGUCCUCAACCUCCAAUGCAUCCCACCAAAUGAUGAUGCCUGAAGAGUCUUGGUUUUUUG the “polymerase ribozyme fitness (log ratio)” value was -0.0302.
With GACCAAUCUGCUCUCAGAGCUCGAGAACAUCUUCGGAUGCAGAGGAGGCAGGCUUCGGUGUCGCGAUAGCGCCAACGUCCUCAACCUCCAAUGCAUCCCACCACUUGAUGAUGCCUGAAGAGCCUUGGUUUUUUG the “polymerase ribozyme fitness (log ratio)” value was -1.42.
In the case of GACCAAUCUGGCCUCAGAGCUCGAGAACAUCUUCGGAUGCAGAGGAGGCAGGCUUUGGUGGCGCGAUAGCGCCAACGUCCUCAACCUCCAAUGCAUCCCACCACAUGAUGAUGCCUGAAGAGCCUUGGUUUUUUG, the “polymerase ribozyme fitness (log ratio)” value is reported as 0.107.
In the case of GAUCAAGCUGCCCUCAGAGUGCGAGAACAUCUUCGGAUGCAGAGGAGGCAGGCUUCGGUGGCGCGAUAGCGCUAACGUCCUCAACCUCCAAUGCAUCCCACCACAUGAUUAUGCCUGAAGAGCGUUGGUUUUUUG, the “polymerase ribozyme fitness (log ratio)” value is reported as -4.5.
In the case of GACGAAUCUGCCCUCAGAGCUCGAGAACAUCUUCGGAUGCAGAGGUGGCAGGAUUCGGUGGCGCGAUAGCGACAACGUCCUCAACAUCCAAUGCAUCCCACCACAUGAUGAUGCCUGAAGAGCCUUGGUUUUUUG, the “polymerase ribozyme fitness (log ratio)” value is reported as -2.23.
For GCCCAAUCUGCCCUCAGAGCACGAGAACAUCUUCGGAUGCAGAGGAGGCAGGCUUCGGUGGCGCGAUAGCGCCAACGUCCUCAACCUCGAAUGCAUCCCACCACAUGAUGAUGCCUGAAGAGCCUUGGUUUUUUG, the “polymerase ribozyme fitness (log ratio)” value was -4.49.
With GACCAAUCUGCCCUCAGAGCUCGAGAACAUCUUCGGAUGCAGAGGAGGCAGGCUUCGGUGGCGCGAUAGCGGCAACGUCCUCAACCUCCAAUGCAUCCCACCACAUGAUGAUGCCUGAAGAGCCUUGGUUUUUUG the “polymerase ribozyme fitness (log ratio)” value was -0.25.
With GACCAAUCUGCCCUCAGAGCUCGAGAACAUCUUCGGAUGCAGAGGAGGCAGGCCUCGGUGGCGCGAUAGCGCCAACGUCCUUAACCUCCAAUGCAUCCCACCACAAGAAGAUGCCUGAAGAGCCUUGGUUUUUUU the “polymerase ribozyme fitness (log ratio)” value was -4.59.
In the case of GACCAAUCUGACCUCAGAGCUCGAGAACAUCUUCGGAUGCAGAGGAGGCAGGCUUCGGUGGCGCGAUAUCGCCAACGUCCUCAACCUCCAAUGCAUCCCACCACAUGAUGAUGCCUGAAAAGCCUUGGUUUAUUG, the “polymerase ribozyme fitness (log ratio)” value is reported as 2.
With GACCAAUUUGCCCUCAGAGCUCGAGAACAUCUUCGGAUGCAGAUGAGGCAGGCUUCGGUGGCGCGAUAGCGCCAACGUCCUCAACCUGCAAAGCAUCCCACCACAUGAUGAUGCCUGAAGAGCCUUGGUUUUUUG the “polymerase ribozyme fitness (log ratio)” value was -3.81.
In the case of GUCCAAUCUGCCCUCAGAGCUCGAGAACAUCUUCGGAUGCAGAGGAGGCAGGCUUCGGUGGCGCGAUAGGGCCAACGUCCUCAACCUCCAAUGCAUCCCACCACAUGAUGAUGCCUGAAGAGCCUUGGUUUUUUG, the “polymerase ribozyme fitness (log ratio)” value is reported as -5.04.
For GACCAAUCUUCCCUCAGAGCUCGAGAACAUCUUCGGAUGCAGAGGAGGCAGGCUUAGGUGGCGCGAUAGCGCCGACGUCCUCAACCUCCAAUGCAUCCCACCACAUGAUGAUGCCUGAAGAGCCUUGGUUUCUUG, the “polymerase ribozyme fitness (log ratio)” value was -1.83.
For GACCAAUCUGCCCUCCGAGCUCGAGAACAUCUUCGGAUGCAGAGGAGGCAGACUUCGGUGGCGCGAUAGCGCCAACGUCCUCAACCUCCAAUGCAUCCCACCACAUGAUGAUGCCUGAGGAGCCUUGGUUUUUUG, the “polymerase ribozyme fitness (log ratio)” value was 0.273.
With GACCAAUCUGCCCUCAGUGCUCGAGAACAUCUUCGGAUGCAGAGGAGGCAGGCUUCGGUGGCGCGAUAGCGCCAACGUCCUCAACCUCCAAUGCAUCCCACCAAAUGAUGAUGCCUGAAGAGCCUUGGUUUUUUG the “polymerase ribozyme fitness (log ratio)” value was -4.32.
With GACCAAUCUGCCCUCAGAGCUCGAGAACAUCUUCGGAUGGAGAGGAGGGAGGCUUCGGUGUCGCGAUAGCGCCAACGUCCUCAACCGCCAAUGCAUCCCACCACAUGAUGAUGCCUGAAGAGCCUUGGAUUUUUG the “polymerase ribozyme fitness (log ratio)” value was -2.49.
With GACCAAUGUGCCCUCAGAGCUCGAGAACAUCUUCGGAUGCAGAGGAGGCAGGCUUCGGUGGCGCGAUAGCGCCAACGUCCUCAACCUCCAAUGCAUCCCACCAGAUGAUGAUGCCCGAAGUUCCUUGGCUUUUUG the “polymerase ribozyme fitness (log ratio)” value was -7.72.
For GACCAAUCUGCCCUCAGAGCUCGAGAACAUCUUCGGAUGCAGAGGAGGCAGGCUUUGGUGGGGCGAUAGCGCCAACGUCCUCAACCUCCAAUGCAUCCCACCACAUGAUGAGGCCUGAAGAGCCUUGGUUUUUUG, the “polymerase ribozyme fitness (log ratio)” value was -5.4.
For GACCAAUCUGCCCUCAGAGCUCGAGAAGAUCUUCGGAUGCAGAGGAGGCAGGCUUCGGUGGCGCGAUAGAGCCAACGUCCUCAACCUCCAAUGCAUCCCACCACAUGAUGAUGCCUGAAGAGCCUUGGUUUUUUG, the “polymerase ribozyme fitness (log ratio)” value was -4.55.
For GACCAAUCUGACCUCAGAGCUCGAGAACAUCUUCGGAUGCAGAGGAGGCAGGCUUCGGUGGCGCGAUAGCGCCAACGUCCUCAACCUCCAAUGCAUCCAACCACAUGAUGAUGCCUGAAGAGACUUGGUUUUUUG, the “polymerase ribozyme fitness (log ratio)” value was -5.29.
With GACCAAUCUGCCCUCAGAGCUCGAGAACAUCUUCGGAUGCAGAGGAGGCAGGCUUCGGUGGCGCGAUAGCGCCAACGUGCUCAACCGCCAACGCAUCCCACCACAUGAUGAUGCCUGAAUAGCCUUGGUUUUUUG the “polymerase ribozyme fitness (log ratio)” value was -4.54.
For GACCAAUCUGCCCUCAGAGCUCGAGAACAUCUUCGGAUGCAGAGGAGGCAGGCUUCGGUGGCGCGAUAUCGCCAACGUCCUCAACCUCCAAUGCAUCCCACCACAUGAUGAUCCCUGAAGACCCUUAGUUUAUUG, the “polymerase ribozyme fitness (log ratio)” value was -4.29.
For GACCAAUCUACCCUCAGAGCUCGAGAACAUCUUCGGAUGCAGAGGAGGCAGGCUUCGGUGGCGCGAUAGCGCCAACGUCCUCAACCUCCAAUGCAUUCCAUCACGUGAUGAUGCCUGAAGAGCCUUGGUGUUUUG, the “polymerase ribozyme fitness (log ratio)” value was -5.15.
For GACCAAUCUGCCCUCAGAGCUCGAGAACAUCUUCGGAUGCAGAGGAGGCAGGCUUCGGUGGCGCGAUAGCGUCACCGUCCUCAACCUCCAAUGCAUCCCACCACAUGAUGAUGCCUGUAUAGCCUUGGUUUUUUG, the “polymerase ribozyme fitness (log ratio)” value was -0.721.
With GACCAAUAUGCCUUCAGAGCUCGAGAACAUCUUCGCAUGCAGAGGAGGCAGGCUUCGGUGGCGCGAUAGCGCCAACGUCCUCAACCUCCAAUGCAUCCCACCACAUGAUGAUGCCUGAAGAGCCUUGGUUUUUUG the “polymerase ribozyme fitness (log ratio)” value was -0.24.
In the case of GACCAAUCUGCCCUCAGAGCUCGAGAACAUCUUCGGAUGCAGAGGAGGCAGGCUUCUGUGGCGCGAUAGCGCCAACGUCCUCAACCUCCAAUGGAUCCCACCACAUGAUGAGGCCUGAAGAGCCUUGGUUUUUUG, the “polymerase ribozyme fitness (log ratio)” value is reported as -4.47.
With GACCAAUCUGCCCUCAGCGCUCGAGAACAUCUUCGGAUGCAGAGGAGGCAGGCUUCGGUGGCACGAUAGCGCCAACGUCCUCAACCUCCAAGGCAUCCCACCACAUGAUGACGCCUAAAGAGCCUUGGUUUUUUG the “polymerase ribozyme fitness (log ratio)” value was -4.55.
For GACCAAUCUGCCCUCAGAGCUCGAGAACAUCUUCGGAUGCAGAGGAGGCAGGCUUCGGUGGCGCGAUAGCGCCAACGUCCUCAACCUCCAAUGCAUCCCACCACAUGAUGAUGCCUGACGUGCCUUGGUUUUUUG, the “polymerase ribozyme fitness (log ratio)” value was -1.38.
With GACCAAUCUGCCCUCAGAGCUCGAGAACAUCUUCGGAUGCAGGGGAGGCAGGCUUCGGUGGCGCGAUAGCGCCAACGUCCUCAACCUCCAAUGCAUCCCACCACAUGAUGAUGGCUGAAGAGCCUUGGUUUUUUU the “polymerase ribozyme fitness (log ratio)” value was -3.37.
In the case of GACCAAUCUGCCCUCAGAGCUCGAGAACAUCUUCGGAUGCAGAGGAGACAGGCUUCGGUGGCUCGAUAGCGCCAACGUCCUCAACCUCCAAUGCAUCCCAACACAUGAUGAUGCCUGAAGAGCCUUGGUUUUUUG, the “polymerase ribozyme fitness (log ratio)” value is reported as -2.69.
With GACCAAUCUGCCCUCAAAGCUCGAGAACAUCUUCGGAGGCAGAGGAGGCAGGCUUCGGUGGCGCGAUAGCGCCAACGUCCUCAACCUCCAAUGCAUCCCACCACAUGAUGAUGCAAGAAGAGCCUUGGUUCUUUG the “polymerase ribozyme fitness (log ratio)” value was -2.73.
For GACCAAUCUGCCCUCAGAGCUCGAGAACAUCUUCGGAUGCAGUGGAGGCAGGCUUGGGUGGCGCGAUAGCGCCAACGUCCUCAACCUCCAAUGCAUCCCACCACAUGAUGAUGUCUGAAGAGCCUUGGUUUUUUG, the “polymerase ribozyme fitness (log ratio)” value was -2.92.
With GACCAAUCUGCCCUCAGAGCUCGAGAACAUCUUCGGAUGCAGAGGAGGCAGGCUUCGGUGGCGCGAUAACGCCAACGUCCUCAACCUCCAAUGCAUCCCACCACAUGAUGAUGCCCGAAGAGCCUUGGUUUUUUG the “polymerase ribozyme fitness (log ratio)” value was -3.45.
For GACCAAUCUGCCCUCAGAGCUCGAGAACAUCUUCGGAUGCAGAGGAGGCAGGCUUCAGUGGCGCGAUAGCGCCAACCUCCUCAACCUCCAAUGCAUCCCACCACAUGAUGAUGCCUGAAGAGCCUUGGUUUUUUG, the “polymerase ribozyme fitness (log ratio)” value was -2.28.
